The results in this text go back to paper PMC9606269, “Biased signaling due to oligomerization of the G protein-coupled platelet-activating factor receptor” (Nature Communications, 2022).

Experiment [1] addresses Halo-PAFR Cys mutant 6.54. As to the kind of experiment: cysteine cross-linking with CuP, SDS-PAGE blot quantification of cell surface Halo-PAFR. To be noted: parent: est. 5, read off a plot.
Experiment [2] concerns the target Halo-PAFR Cys mutant 7.37. The description is as above. To be noted: parent: est. 5, read off a plot.
Experiment [3] concerns the target Halo-PAFR Cys mutant 4.60. The description is as above. To be noted: parent: est. 5, read off a plot.
Experiment [4] deals with Halo-PAFR Cys mutant 4.58. The experiment is described as above. To be noted: parent: est. 5, read off a plot.
Experiment [5] deals with Halo-PAFR Cys mutant 4.51. The experiment is described as above. To be noted: parent: est. 5, read off a plot.
Experiment [6] deals with Halo-PAFR Cys mutant 7.35. Described as above. To be noted: parent: est. 5, read off a plot.
Experiment [7] concerns the target Halo-PAFR Cys mutant 4.61. Described as above. The note with it: parent: est. 5, read off a plot.
Experiment [8] addresses Halo-PAFR Cys mutant 2.63. Described as above. The note with it: parent: est. 5, read off a plot.
The target of experiment [9] is Halo-PAFR Cys mutant 4.56. The description is as above. The note with it: parent: est. 5, read off a plot.
The target of experiment [10] is Halo-PAFR Cys mutant 6.51. The description is as above. To be noted: parent: est. 5, read off a plot.
For experiment [11], the target named is Halo-PAFR Cys mutant 1.35. The description is as above. The note with it: parent: est. 5, read off a plot.
The target in experiment [12] is Halo-PAFR Cys mutant 1.38. The description is as above. To be noted: parent: est. 5, read off a plot.
For experiment [13], the target named is Halo-PAFR Cys mutant 4.53. Described as above. To be noted: parent: est. 5, read off a plot.
In experiment [14] the target is Halo-PAFR Cys mutant 4.64. Described as above. The note with it: parent: est. 5, read off a plot.
Experiment [15] has as its target Halo-PAFR Cys mutant 1.33. The experiment is described as above. The note with it: parent: est. 5, read off a plot.
Experiment [16] has as its target Halo-PAFR Cys mutant 4.47. The experiment is described as above. To be noted: parent: est. 5, read off a plot.
For experiment [17], the target named is Halo-PAFR Cys mutant 4.54. The experiment is described as above. To be noted: parent: est. 5, read off a plot.
In experiment [18] the target is Halo-PAFR Cys mutant 7.38. The experiment is described as above. The note with it: parent: est. 5, read off a plot.
In experiment [19] the target is Halo-PAFR Cys mutant 1.41. Described as above. To be noted: parent: est. 5, read off a plot.
The target of experiment [20] is Halo-PAFR Cys mutant 3.27. The experiment is described as above. The note with it: parent: est. 5, read off a plot.
Experiment [21] has as its target Halo-PAFR Cys mutant 6.56. The description is as above. To be noted: parent: est. 5, read off a plot.
The target in experiment [22] is Halo-PAFR Cys mutant 6.53. The description is as above. To be noted: parent: est. 5, read off a plot.
Experiment [23] has as its target Halo-PAFR Cys mutant 6.49. The experiment is described as above. The note with it: parent: est. 5, read off a plot.
The target in experiment [24] is Halo-PAFR Cys mutant 3.23. Described as above. To be noted: parent: est. 5, read off a plot.
For experiment [25], the target named is Halo-PAFR Cys mutant 1.39. Described as above. To be noted: parent: est. 5, read off a plot.
The target in experiment [26] is Halo-PAFR Cys mutant 2.59. The description is as above. To be noted: parent: est. 5, read off a plot.
Experiment [27] concerns the target Halo-PAFR Cys mutant 4.57. The description is as above. The note with it: parent: est. 5, read off a plot.
Experiment [28] deals with Halo-PAFR Cys mutant 4.48. The description is as above. The note with it: parent: est. 5, read off a plot.
For experiment [29], the target named is Halo-PAFR Cys mutant 7.33. The experiment is described as above. To be noted: parent: est. 5, read off a plot.
Experiment [30] addresses Halo-PAFR Y151C^4.59-I154C^4.62 (human, UniProt P25105 1-342, Y151C^4.59 | I154C^4.62, Halo-tag covalently labelled with HaloTag Alexa Fluor 660 (blots) or HaloTag Alexa Fluor 488 (imaging)). Put plainly: cell-based or functional assay.
Experiment [31] deals with Halo-PAFR E178K (natural genetic variant) (human, UniProt P25105 1-342, E178K, Halo-tag covalently labelled with HaloTag Alexa Fluor 488). As to the kind of experiment: cell-based or functional assay.
Sequence of Halo-PAFR E178K (natural genetic variant) (P25105 whole entry E178K): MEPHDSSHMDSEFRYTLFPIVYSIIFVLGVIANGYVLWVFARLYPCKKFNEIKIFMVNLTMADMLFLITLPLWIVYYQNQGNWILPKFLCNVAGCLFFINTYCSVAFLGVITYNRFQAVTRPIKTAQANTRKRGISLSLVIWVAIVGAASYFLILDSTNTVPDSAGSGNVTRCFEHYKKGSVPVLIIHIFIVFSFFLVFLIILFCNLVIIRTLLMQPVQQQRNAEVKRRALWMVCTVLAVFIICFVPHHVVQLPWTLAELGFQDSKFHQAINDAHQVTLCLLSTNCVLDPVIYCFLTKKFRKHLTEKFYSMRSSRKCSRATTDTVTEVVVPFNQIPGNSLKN

Sequence of Halo-PAFR Y151C^4.59-I154C^4.62 (P25105 whole entry Y151C/I154C): as the sequence (P25105 whole entry E178K) above, with Y151C, I154C, K178E counted along it

Consider “Halo-tagged wild-type human platelet-activating factor receptor (from UniProt P25105) 6.54”, for which the other: change of dimer cross-linking in [1] came out at 8%.

“Halo-tagged wild-type human platelet-activating factor receptor (from UniProt P25105) 7.37”: the other: change of dimer cross-linking in [2] amounted to 19%.

In the case of “Halo-tagged wild-type human platelet-activating factor receptor (from UniProt P25105) 4.60”, the other: change of dimer cross-linking in [3] came out at 20%. On to “Halo-tagged wild-type human platelet-activating factor receptor (from UniProt P25105) 4.58”, for which the other: change of dimer cross-linking in [4] is 22%. Regarding “Halo-tagged wild-type human platelet-activating factor receptor (from UniProt P25105) 4.51”, the other: change of dimer cross-linking in experiment [5] amounted to 19%. With “Halo-tagged wild-type human platelet-activating factor receptor (from UniProt P25105) 7.35”, in experiment [6], the other: change of dimer cross-linking is 16%. For the molecule “Halo-tagged wild-type human platelet-activating factor receptor (from UniProt P25105) 4.61”, in [7], the other: change of dimer cross-linking was 18%. Take “Halo-tagged wild-type human platelet-activating factor receptor (from UniProt P25105) 2.63”: the other: change of dimer cross-linking in [8] was 14%.

For “Halo-tagged wild-type human platelet-activating factor receptor (from UniProt P25105) 4.56”, in experiment [9], the other: change of dimer cross-linking is 22%.

Take “Halo-tagged wild-type human platelet-activating factor receptor (from UniProt P25105) 6.51”: the other: change of dimer cross-linking in [10] stood at 6%.

As for “Halo-tagged wild-type human platelet-activating factor receptor (from UniProt P25105) 1.35”, the other: change of dimer cross-linking in [11] came out at 18%.

“Halo-tagged wild-type human platelet-activating factor receptor (from UniProt P25105) 1.38”: in experiment [12], the other: change of dimer cross-linking was 16%.

For the molecule “Halo-tagged wild-type human platelet-activating factor receptor (from UniProt P25105) 4.53”, the other: change of dimer cross-linking in experiment [13] was 20%.

Consider “Halo-tagged wild-type human platelet-activating factor receptor (from UniProt P25105) 4.64”, for which the other: change of dimer cross-linking in [14] turned out to be 11%. Consider “Halo-tagged wild-type human platelet-activating factor receptor (from UniProt P25105) 1.33”, for which, in experiment [15], the other: change of dimer cross-linking is 14%.

Regarding “Halo-tagged wild-type human platelet-activating factor receptor (from UniProt P25105) 4.47”, the other: change of dimer cross-linking in experiment [16] is 13%. In the case of “Halo-tagged wild-type human platelet-activating factor receptor (from UniProt P25105) 4.54”, the other: change of dimer cross-linking in experiment [17] turned out to be 20%. For “Halo-tagged wild-type human platelet-activating factor receptor (from UniProt P25105) 7.38”, the other: change of dimer cross-linking in [18] is 15%. Turning to “Halo-tagged wild-type human platelet-activating factor receptor (from UniProt P25105) 1.41”, in experiment [19], the other: change of dimer cross-linking was 20%. Take “Halo-tagged wild-type human platelet-activating factor receptor (from UniProt P25105) 3.27”: the other: change of dimer cross-linking in [20] came to 9%.

For “Halo-tagged wild-type human platelet-activating factor receptor (from UniProt P25105) 6.56”, the other: change of dimer cross-linking in experiment [21] is 9%. In the case of “Halo-tagged wild-type human platelet-activating factor receptor (from UniProt P25105) 6.53”, in experiment [22], the other: change of dimer cross-linking came to 10%. Take “Halo-tagged wild-type human platelet-activating factor receptor (from UniProt P25105) 6.49”: in experiment [23], the other: change of dimer cross-linking stood at 15%. For “Halo-tagged wild-type human platelet-activating factor receptor (from UniProt P25105) 3.23”, the other: change of dimer cross-linking in experiment [24] came out at 8%. For the molecule “Halo-tagged wild-type human platelet-activating factor receptor (from UniProt P25105) 1.39”, the other: change of dimer cross-linking in [25] worked out at 13%. As for “Halo-tagged wild-type human platelet-activating factor receptor (from UniProt P25105) 2.59”, in experiment [26], the other: change of dimer cross-linking was determined as 21%. Take “Halo-tagged wild-type human platelet-activating factor receptor (from UniProt P25105) 4.57”: the other: change of dimer cross-linking in experiment [27] worked out at 15%. In the case of “Halo-tagged wild-type human platelet-activating factor receptor (from UniProt P25105) 4.48”, in experiment [28], the other: change of dimer cross-linking was found to be 14%. As for “Halo-tagged wild-type human platelet-activating factor receptor (from UniProt P25105) 7.33”, the other: change of dimer cross-linking in experiment [29] was found to be 15%.

B1: Human β-arrestin1 tagged with Rluc (natural protein, UniProt P49407 1-418, looked up)
chain: MGDKGTRVFKKASPNGKLTVYLGKRDFVDHIDLVDPVDGVVLVDPEYLKERRVYVTLTCAFRYGREDLDVLGLTFRKDLFVANVQSFPPAPEDKKPLTRLQERLIKKLGEHAYPFTFEIPPNLPCSVTLQPGPEDTGKACGVDYEVKAFCAENLEEKIHKRNSVRLVIRKVQYAPERPGPQPTAETTRQFLMSDKPLHLEASLDKEIYYHGEPISVNVHVTNNTNKTVKKIKISVRQYADICLFNTAQYKCPVAMEEADDTVAPSSTFCKVYTLTPFLANNREKRGLALDGKLKHEDTNLASSTLLREGANREILGIIVSYKVKVKLVVSRGGLLGDLASSDVAVELPFTLMHPKPKEEPPHREVPENETPVDTNLIELDTNDDDIVFEDFARQRLKGMKDDKEEEEDGTGSPQLNNR
Consider B1, for which the “maximal efficacy of βarr1 recruitment, normalized to WT” value was ~60 % of WT in experiment [30] and ~83 % of WT in [31].
